In the supplement of paper PMC9112550, “Optimization of the antimicrobial peptide Bac7 by deep mutational scanning” (BMC Biology, 2022):

Tested on: Escherichia coli TOP10
Assay: shrunken log2 fold change of peptide-encoding DNA abundance (4.5 h post-induction vs induction); higher = less antimicrobial activity (less host growth inhibition)
Conditions: time post-induction: 4.5 h; library: site-saturation at positions 5, 18, 19, 20
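Note: peptides expressed intracellularly from a pBAD plasmid library in pooled LB shake-flask culture, induced with 0.3% L-arabinose, DNA abundance read by NGS, three biological replicates, DESeq2 with apeglm shrinkage.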

RRIRPRPPRLPRPRPRPMDLPRP
shrunken log2 fold change: -0.00399

RRIRQRPPRLPRPRPRPSYAPRP
shrunken log2 fold change: 0.0242

RRIRARPPRLPRPRPRPKMMPRP
shrunken log2 fold change: 0.105

RRIRNRPPRLPRPRPRPWQTPRP
shrunken log2 fold change: 0.0295

RRIRRRPPRLPRPRPRPPQCPRP
shrunken log2 fold change: 1.55

RRIRQRPPRLPRPRPRPDQHPRP
shrunken log2 fold change: 0.00878

RRIRWRPPRLPRPRPRPMGTPRP
shrunken log2 fold change: -0.00133

RRIRWRPPRLPRPRPRPAYAPRP
shrunken log2 fold change: 0.531

RRIRNRPPRLPRPRPRPKTFPRP
shrunken log2 fold change: -0.399

RRIRDRPPRLPRPRPRPRRWPRP
shrunken log2 fold change: 0.453

RRIRPRPPRLPRPRPRPCDGPRP
shrunken log2 fold change: 0.0661

RRIRVRPPRLPRPRPRPEEWPRP
shrunken log2 fold change: 0.015

RRIRGRPPRLPRPRPRPSWKPRP
shrunken log2 fold change: 0.437

RRIRARPPRLPRPRPRPQVLPRP
shrunken log2 fold change: -0.0334

RRIRHRPPRLPRPRPRPPRHPRP
shrunken log2 fold change: 0.231

RRIRLRPPRLPRPRPRPRKCPRP
shrunken log2 fold change: 0.309

RRIRMRPPRLPRPRPRPSTMPRP
shrunken log2 fold change: -0.283

RRIRGRPPRLPRPRPRPNFFPRP
shrunken log2 fold change: 0.122

RRIRKRPPRLPRPRPRPDKIPRP
shrunken log2 fold change: 0.0555

RRIRSRPPRLPRPRPRPGMCPRP
shrunken log2 fold change: 0.0439

RRIRMRPPRLPRPRPRPRSPPRP
shrunken log2 fold change: 0.921

RRIRCRPPRLPRPRPRPVGAPRP
shrunken log2 fold change: 0.622

RRIRCRPPRLPRPRPRPWFHPRP
shrunken log2 fold change: -1.28

RRIRLRPPRLPRPRPRPMDPPRP
shrunken log2 fold change: 0.0507

RRIRGRPPRLPRPRPRPFTYPRP
shrunken log2 fold change: 0.0977

RRIRLRPPRLPRPRPRPWEPPRP
shrunken log2 fold change: 0.0843

RRIRMRPPRLPRPRPRPFYDPRP
shrunken log2 fold change: -0.12

RRIRVRPPRLPRPRPRPNHLPRP
shrunken log2 fold change: -0.694

RRIRERPPRLPRPRPRPRGLPRP
shrunken log2 fold change: 0.159

RRIRCRPPRLPRPRPRPIMDPRP
shrunken log2 fold change: -0.5

RRIRNRPPRLPRPRPRPKPRPRP
shrunken log2 fold change: 0.83

RRIRVRPPRLPRPRPRPNHYPRP
shrunken log2 fold change: -0.501

RRIRSRPPRLPRPRPRPMQDPRP
shrunken log2 fold change: 0.125

RRIRVRPPRLPRPRPRPKGYPRP
shrunken log2 fold change: -0.0404

RRIRPRPPRLPRPRPRPLDDPRP
shrunken log2 fold change: 0.0437

RRIRGRPPRLPRPRPRPMKRPRP
shrunken log2 fold change: 0.343

RRIRHRPPRLPRPRPRPLPYPRP
shrunken log2 fold change: -0.137

RRIRGRPPRLPRPRPRPQLFPRP
shrunken log2 fold change: 0.838

RRIRDRPPRLPRPRPRPSRFPRP
shrunken log2 fold change: 0.128

RRIRYRPPRLPRPRPRPHKNPRP
shrunken log2 fold change: -1.06

RRIRDRPPRLPRPRPRPTACPRP
shrunken log2 fold change: 0.388

RRIRTRPPRLPRPRPRPTFEPRP
shrunken log2 fold change: -0.0371

RRIRNRPPRLPRPRPRPAWEPRP
shrunken log2 fold change: 0.247

RRIRVRPPRLPRPRPRPNNFPRP
shrunken log2 fold change: 1.9

RRIRNRPPRLPRPRPRPIHWPRP
shrunken log2 fold change: 0.0944

RRIRHRPPRLPRPRPRPHWIPRP
shrunken log2 fold change: -0.415

RRIRVRPPRLPRPRPRPQNDPRP
shrunken log2 fold change: -0.292

RRIRERPPRLPRPRPRPGINPRP
shrunken log2 fold change: -0.249

RRIRNRPPRLPRPRPRPKPNPRP
shrunken log2 fold change: 0.513

RRIRKRPPRLPRPRPRPAYIPRP
shrunken log2 fold change: 0.0173

RRIRQRPPRLPRPRPRPCYLPRP
shrunken log2 fold change: -0.195

RRIRERPPRLPRPRPRPRMMPRP
shrunken log2 fold change: -0.011

RRIRERPPRLPRPRPRPCHLPRP
shrunken log2 fold change: -0.176

RRIRERPPRLPRPRPRPLMYPRP
shrunken log2 fold change: -0.0754

RRIRIRPPRLPRPRPRPGQLPRP
shrunken log2 fold change: 0.0335

RRIRFRPPRLPRPRPRPRLFPRP
shrunken log2 fold change: -0.0286

RRIRTRPPRLPRPRPRPFDFPRP
shrunken log2 fold change: -0.271

RRIRFRPPRLPRPRPRPNGNPRP
shrunken log2 fold change: -0.377

RRIRNRPPRLPRPRPRPERMPRP
shrunken log2 fold change: -0.0351

RRIRRRPPRLPRPRPRPTTIPRP
shrunken log2 fold change: -0.12

RRIRIRPPRLPRPRPRPTDIPRP
shrunken log2 fold change: -0.359

RRIRTRPPRLPRPRPRPEFYPRP
shrunken log2 fold change: -0.212

RRIRVRPPRLPRPRPRPAGDPRP
shrunken log2 fold change: 0.778

RRIRKRPPRLPRPRPRPAIVPRP
shrunken log2 fold change: 0.0885

RRIRRRPPRLPRPRPRPKHRPRP
shrunken log2 fold change: 0.376

RRIRWRPPRLPRPRPRPYIAPRP
shrunken log2 fold change: -0.825

RRIRARPPRLPRPRPRPEMHPRP
shrunken log2 fold change: 1.1

RRIRPRPPRLPRPRPRPEKTPRP
shrunken log2 fold change: 0.037

RRIRHRPPRLPRPRPRPNHNPRP
shrunken log2 fold change: -0.954

RRIRVRPPRLPRPRPRPNTPPRP
shrunken log2 fold change: -0.0576

RRIRFRPPRLPRPRPRPFYMPRP
shrunken log2 fold change: -0.317

RRIRRRPPRLPRPRPRPWPDPRP
shrunken log2 fold change: 0.0719

RRIRMRPPRLPRPRPRPSVTPRP
shrunken log2 fold change: 0.703

RRIRYRPPRLPRPRPRPVWEPRP
shrunken log2 fold change: -0.3

RRIRFRPPRLPRPRPRPSGMPRP
shrunken log2 fold change: -0.637

RRIRWRPPRLPRPRPRPQCAPRP
shrunken log2 fold change: 0.572

RRIRRRPPRLPRPRPRPLWWPRP
shrunken log2 fold change: 0.48

RRIRSRPPRLPRPRPRPRWFPRP
shrunken log2 fold change: 0.0783

RRIRHRPPRLPRPRPRPVWKPRP
shrunken log2 fold change: -0.00992

RRIRSRPPRLPRPRPRPGCHPRP
shrunken log2 fold change: 0.328

RRIRLRPPRLPRPRPRPRVTPRP
shrunken log2 fold change: -0.243

RRIRGRPPRLPRPRPRPCETPRP
shrunken log2 fold change: 0.496

RRIRWRPPRLPRPRPRPAMDPRP
shrunken log2 fold change: 0.109

RRIRNRPPRLPRPRPRPLPEPRP
shrunken log2 fold change: -0.00875

RRIRFRPPRLPRPRPRPIENPRP
shrunken log2 fold change: -0.193

RRIRFRPPRLPRPRPRPIQGPRP
shrunken log2 fold change: 0.0616

RRIRQRPPRLPRPRPRPYCRPRP
shrunken log2 fold change: -0.00101

RRIRNRPPRLPRPRPRPRGMPRP
shrunken log2 fold change: 0.151

RRIRIRPPRLPRPRPRPHSQPRP
shrunken log2 fold change: -0.824

RRIRTRPPRLPRPRPRPKKHPRP
shrunken log2 fold change: -0.265

RRIRHRPPRLPRPRPRPLYIPRP
shrunken log2 fold change: -0.777
